Laboratory results: US20120316071A1 (published 2012)
Substitutions are numbered along the chain they refer to. Names may count otherwise.

Tests used:
[1] = biological target: T1, rHuman P-Cadherin/Fc Chimera, CF (R&D Systems Cat#861-PC) (human, UniProt P22223 108-654); experiment: ECL multispot (MSD) assay; antigen spotted on plate, Fab in solution;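 further: purified Fab incubated 1 hour at 20 °C in 1% BSA TBST on antigen-coated wells, detected with TAG antibody, ECL read on Sector Imager 2400, compared to each well's blank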
T1 construct: Bought protein; Fc part of the bought chimera not given

[2] = biological target: T2, rHuman CD44/Fc Chimera, CF (R&D Systems Cat#3660-CD) (human, UniProt P16070 21-220); experiment: as above
T2 construct: Bought protein; Fc part of the bought chimera not given

[3] = biological target: T3, rHuman EGF R/Fc Chimera, CF (R&D Systems Cat#344-ER) (human, UniProt P00533 25-645); experiment: as above
T3 construct: Bought protein; also called epidermal growth factor receptor; Fc part of the bought chimera not given

[4] = biological target: T4, rHuman ErbB2/Fc Chimera, CF (R&D Systems Cat#1129-ER) (human, UniProt P04626 23-652); experiment: as above
T4 construct: Bought protein; also called human epidermal growth factor 2 receptor; Fc part of the bought chimera not given

[5] = biological target: T5, rHuman IGF-1 sR, (IGF-1 sR), CF (R&D Systems Cat#391-GR) (human, UniProt P08069 31-932); experiment: as above
T5 construct: Bought soluble receptor; also called insulin-like growth factor-1 soluble receptor

[6] = biological target: T6, rHuman HGF R/c-MET/Fc Chimera, CF (R&D Systems Cat#358-MT/CF) (human, UniProt P08581 25-932); experiment: as above
T6 construct: Bought protein; also called HGF R/Fc; hepatocyte growth factor receptor; Fc part of the bought chimera not given

[7] = biological target: T7, rHuman Notch-1/Fc Chimera, CF (R&D Systems Cat#3647-TK) (human, UniProt P46531 19-526); experiment: as above
T7 construct: Bought protein; Fc part of the bought chimera not given

[8] = biological target: T8, rHuman Erythropoietin R/Fc Chimera, CF (R&D Systems Cat#963-ER) (human, UniProt P19235 25-250); experiment: as above
T8 construct: Bought protein; also called EPO R; EPO R/Fc; Fc part of the bought chimera not given
T8 sequence (looked up): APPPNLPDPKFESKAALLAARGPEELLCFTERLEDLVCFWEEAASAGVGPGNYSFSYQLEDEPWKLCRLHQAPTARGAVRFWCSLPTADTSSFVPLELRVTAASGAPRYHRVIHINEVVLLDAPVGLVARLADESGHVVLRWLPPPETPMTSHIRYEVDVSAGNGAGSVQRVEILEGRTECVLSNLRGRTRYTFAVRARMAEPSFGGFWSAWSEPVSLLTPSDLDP

[9] = biological target: T9, Recombinant Human DLL4 (R&D Systems Cat#1506-D4/CF) (human, UniProt Q9NR61 27-524); experiment: as above
T9 construct: Bought recombinant protein; also called delta-like protein 4; rHuman DLL4

[10] = biological target: T10, Recombinant Human DLL4 (R&D Systems Cat#1506-D4/CF) (human, UniProt Q9NR61 27-524); experiment: SPR
T10 construct: bought recombinant protein; also called rHuman DLL4; delta-like protein 4

[11] = biological target: T11, full-length human DLL4 expressed on the surface of CHO cells (human, UniProt Q9NR61 26-685); experiment: competition, flow cytometry; 250 nM biotinylated Notch-Fc as competitor on CHO-DLL4 cells, streptavidin-PE
T11 construct: also called CHO-DLL4; DLL4-expressing CHO cells

T6 sequence (P08581 25-932, change not shown): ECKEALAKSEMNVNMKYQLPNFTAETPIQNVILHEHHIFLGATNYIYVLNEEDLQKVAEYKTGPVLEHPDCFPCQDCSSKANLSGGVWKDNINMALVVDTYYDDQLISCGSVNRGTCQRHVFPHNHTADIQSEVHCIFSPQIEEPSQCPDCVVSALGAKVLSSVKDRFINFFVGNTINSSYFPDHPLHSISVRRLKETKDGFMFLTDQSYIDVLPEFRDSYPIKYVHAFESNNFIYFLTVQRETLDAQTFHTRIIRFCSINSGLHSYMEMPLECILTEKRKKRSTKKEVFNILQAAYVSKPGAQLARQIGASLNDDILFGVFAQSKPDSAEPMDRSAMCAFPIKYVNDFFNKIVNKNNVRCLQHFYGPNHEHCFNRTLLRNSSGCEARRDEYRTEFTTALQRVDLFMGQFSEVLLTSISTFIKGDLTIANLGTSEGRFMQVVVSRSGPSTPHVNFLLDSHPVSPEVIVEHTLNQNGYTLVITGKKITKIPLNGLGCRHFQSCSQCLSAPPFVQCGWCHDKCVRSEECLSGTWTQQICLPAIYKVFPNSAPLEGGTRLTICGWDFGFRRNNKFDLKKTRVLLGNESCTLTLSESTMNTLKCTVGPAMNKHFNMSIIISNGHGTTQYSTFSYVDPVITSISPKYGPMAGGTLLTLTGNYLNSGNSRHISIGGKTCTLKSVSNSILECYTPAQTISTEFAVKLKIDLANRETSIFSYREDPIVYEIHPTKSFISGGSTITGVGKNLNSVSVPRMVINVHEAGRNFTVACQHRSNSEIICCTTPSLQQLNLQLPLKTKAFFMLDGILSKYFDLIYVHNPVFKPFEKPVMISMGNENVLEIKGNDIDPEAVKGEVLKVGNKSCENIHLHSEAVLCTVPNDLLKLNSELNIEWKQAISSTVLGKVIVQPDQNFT

B1: Fab VH1-46_IGHD6-6*01_IGHJ1*01 S102A/S103P/S104F (APF) & L6_IGKJ1*01 (Fab, V domains shown)
VH: QVQLVQSGAEVKKPGASVKVSCKASGYTFTSYYMHWVRQAPGQGLEWMGIINPSGGSTSYAQKFQGRVTMTRDTSTSTVYMELSSLRSEDTAVYYCAREEYAPFSAEYFQHWGQGTLVTVSS
VL: not shown
notes: Tested as Fab made in E. coli; The heavy chain vector (Plasmid A) adds CH1 with His and Flag tags, the kappa vector (Plasmid C) adds CL kappa; also called APF / parent; H:APF & L:wt
ECL signal [1]: 117 ECL signal
ECL signal [2]: 66 ECL signal
ECL signal [3]: 161 ECL signal
ECL signal [4]: 61 ECL signal
ECL signal [5]: 217 ECL signal
ECL signal [6]: 86 ECL signal
ECL signal [7]: 135 ECL signal
ECL signal [8]: 105 ECL signal
ECL signal [9]: 803 ECL signal

B2: Fab VH5-51_IGHD5-18*01>3_IGHJ4*01 G100K/G104T/G24T/S28R/G35V (KT TRV) & V3-4_IGLJ1*01 (Fab, V domains shown)
VH: EVQLVQSGAEVKKPGESLKISCKTSGYRFTSYWIVWVRQMPGKGLEWMGIIYPGDSDTRYSPSFQGQVTISADKSISTAYLQWSSLKASDTAMYYCARRKYSYTYDYFDYWGQGTLVTVSS
VL: QTVVTQEPSFSVSPGGTVTLTCGLSSGSVSTSYYPSWYQQTPGQAPRTLIYSTNTRSSGVPDRFSGSILGNKAALTITGAQADDESDYYCVLYMGSGISYVFGTGTKVTVL
notes: Fab; also called H:KT TRV & L:wt; H:KT TRV & V3-4_IGLJ1*01
fold binding affinity against the parental Fab [10]: 130 fold

B3: Fab VH5-51_IGHD5-18*01>3_IGHJ4*01 G100K/G104T G24T/S28R/G35V (H:KT TRV) & V3-4_IGLJ1*01 V91L/S96P S52G (L:LP S52G) (Fab, V domains shown)
VH: B2 VH
VL: B2 VL with S52G, V91L, S96P
notes: Fab; also called H:KT TRV & L:LP S52G
fold binding affinity against the parental Fab [10]: 1000 fold

B4: Fab VH5-51_IGHD5-18*01>3_IGHJ4*01 G100K/G104T G24T/S28R/G35V (H:KT TRV) & V3-4_IGLJ1*01 V91L/S96P (L:LP) (Fab, V domains shown)
VH: B2 VH
VL: B2 VL with V91L, S96P
notes: Fab; also called H:KT TRV & L:LP
fold binding affinity against the parental Fab [10]: 1000 fold

B5: Fab VH5-51_IGHD5-18*01>3_IGHJ4*01 G100K/G104T G24T/S28R/G35V & V3-4_IGLJ1*01 V91L/S96P S52G (Fab, V domains shown)
VH: B2 VH
VL: B2 VL with S52G, V91L, S96P
notes: Fab; Constant parts come from Plasmid A (CH1, His6, Flag) and Plasmid E (lambda CL); also called H:KT TRV & L:LP S52G
signal of biotinylated Notch-Fc bound to CHO-DLL4 cells at 2 nM Fab (read-out not given) [11]: 250
signal of biotinylated Notch-Fc bound to CHO-DLL4 cells at 10 nM Fab (read-out not given) [11]: 190
